B1: D-dopachrome tautomerase (D-DT or MIF-2), wild type (natural protein, human, UniProt P30046 1-118, looked up)
chain: MPFLELDTNLPANRVPAGLEKRLCAAAASILGKPADRVNVTVRPGLAMALSGSTEPCAQLSISSIGVVGTAEDNRSHSAHFFEFLTKELALGQDRILIRFFPLESWQIGKIGTVMTFL
B2: MIF-2 C56S variant (natural protein, human, UniProt P30046 1-118, looked up)
chain: MPFLELDTNLPANRVPAGLEKRLCAAAASILGKPADRVNVTVRPGLAMALSGSTEPSAQLSISSIGVVGTAEDNRSHSAHFFEFLTKELALGQDRILIRFFPLESWQIGKIGTVMTFL
B3: C56S MIF-2 bound to Ebselen (Cys23 covalently modified) (natural protein, human, UniProt P30046 1-118, looked up)
chain: MPFLELDTNLPANRVPAGLEKRLCAAAASILGKPADRVNVTVRPGLAMALSGSTEPSAQLSISSIGVVGTAEDNRSHSAHFFEFLTKELALGQDRILIRFFPLESWQIGKIGTVMTFL
modifications: Cys23 covalently modified by Ebselen
B4: WT MIF-2 bound to Ebselen (Cys23 covalently modified) (natural protein, human, UniProt P30046 1-118, looked up)
chain: MPFLELDTNLPANRVPAGLEKRLCAAAASILGKPADRVNVTVRPGLAMALSGSTEPCAQLSISSIGVVGTAEDNRSHSAHFFEFLTKELALGQDRILIRFFPLESWQIGKIGTVMTFL
modifications: Cys23 covalently modified by Ebselen

Molecular target: the molecule itself
Test: NMR spin relaxation

Stoichiometry N, 3:
B1
B2
B3
B4
